Test results: the RNAGym collection of RNA variant scans (doi:10.7554/elife.80360)

B1: Hammerhead Ribozyme (parent)
chain: ACCGGAUGUGCUUUCCGGUCUGAUGAGUCCGUGAGGACGAAACAG

Variants of: B1
Experiment: self-cleavage, relative activity (ratio to wild type); higher = more cleavage; co-transcriptional

In order of falling self-cleavage:
1. GCCGGAUGUGCUAUCCGGUCUGAUGAGUCCGUGAGGACGAAACAG [A1G U13A]  1.96
2. GCCGGAUGUGCUUUCCGGUCUGAUGAGUCCGUGAGGGCGAAACAG [A1G A37G]  1.23
3. ACCGGAUGUGGUUUCCGGUCUGAUGAGUCCGGGAGGACGAAACAG [C11G U32G]  1.19
4. GCCGGAUGUGCUUUCCGGUCUGAUGAGUCCGUGAGGACGAAACAU [A1G G45U]  1.13
5. ACCGGAUGUGCUUUCCGGUCUGAUGAGUCCGUCAGGAUGAAACAG [G33C C38U]  1.12
6. ACCGGAUCUGCUUUCCGGUCUGAUGAGUCCGUAAGGACGAAACAG [G8C G33A]  1.11
7. ACCGGAUGUGCUUUCCGGUCUGAAGAGUCCGUGAGGGCGAAACAG [U24A A37G]  1.09
8. ACCGGAUGUGCUAUCCGGUCUGAUGAGUCCGUGGGGACGAAACAG [U13A A34G]  1.04
9. ACCGGAUGUGCUCUUCGGUCUGAUGAGUCCGUGAGGACGAAACAG [U13C C15U]  1.03
10. ACCGGAUGUGCUUCCUGGUCUGAUGAGUCCGUGAGGACGAAACAG [U14C C16U]  0.95
11. ACCGGCUGUGCCUUCCGGUCUGAUGAGUCCGUGAGGACGAAACAG [A6C U12C]  0.899
12. ACCGGAUGUGCUUACCGGUCUGAUGAGUCAGUGAGGACGAAACAG [U14A C30A]  0.838
13. ACCGGAUGUGAUUACCGGUCUGAUGAGUCCGUGAGGACGAAACAG [C11A U14A]  0.829
14. ACCGGAUCUGCUUUCCGGUCUGAUGAGUCCGUGAGGAAGAAACAG [G8C C38A]  0.8
15. ACCGGAUUUGCUUUCCGGUCUGAUGAGUCCGUGAGGUCGAAACAG [G8U A37U]  0.774
16. ACCGGAUCUGCUUUCCGGUCUGAUGAGUCCGUGAAGACGAAACAG [G8C G35A]  0.769
17. ACCGGAUAUGCUUUCCGGUCCGAUGAGUCCGUGAGGACGAAACAG [G8A U21C]  0.742
18. UCCGGAUGUGCUUUCCGGUCUGAUGAGUCCGUGAGGGCGAAACAG [A1U A37G]  0.734
19. AACGGAUGUGCUUUCCGGUCUGACGAGUCCGUGAGGACGAAACAG [C2A U24C]  0.733
20. ACCGGAUGUGCUGUGCGGUCUGAUGAGUCCGUGAGGACGAAACAG [U13G C15G]  0.715
21. ACGGGAUGUGGUUUCCGGUCUGAUGAGUCCGUGAGGACGAAACAG [C3G C11G]  0.647
22. ACCGCUUGUGCUUUCCGGUCUGAUGAGUCCGUGAGGACGAAACAG [G5C A6U]  0.631
23. ACCGGAUGAGCUUUCCGGUCUGAUGAGUCCGUGAGAACGAAACAG [U9A G36A]  0.621
24. UCCGGAUGUGCUUUCCGGCCUGAUGAGUCCGUGAGGACGAAACAG [A1U U19C]  0.617
25. ACCGGAUGUGCUUUCCAGUCUGAGGAGUCCGUGAGGACGAAACAG [G17A U24G]  0.592
26. ACCAGAUGUGCUUUCCGGUCUGAUGAGUUCGUGAGGACGAAACAG [G4A C29U]  0.543
27. ACCGUAUGUGCUUUCCGGUCUGAUGACUCCGUGAGGACGAAACAG [G5U G27C]  0.491
28. ACCGGAUGUGCUUUCCGUUCUGAUGAGUCCGUGAGGAGGAAACAG [G18U C38G]  0.442
29. ACCGGAUGUGCUUUCCGGUCUGAUGACUCCGUGAGGACGAAACAA [G27C G45A]  0.432
30. ACCGGAUGUGCUUUCCGGUCUGAUGAAUCCGUGAGGACGCAACAG [G27A A40C]  0.428
31. ACCGGAAGUGCUUUCCGGUCUGAUGAGUCCGUGAGGACGAAACAA [U7A G45A]  0.427
32. ACCGGAUGUGCUUUCCGGUCUGAUGAGUCGGUGAGGACGCAACAG [C30G A40C]  0.425
33. ACCGGAAGUGCUUUCCGGCCUGAUGAGUCCGUGAGGACGAAACAG [U7A U19C]  0.402
34. ACCGGAUGUGCUUUCCGGUCUGAUGAGUCCGUGAGGACGAUACAA [A41U G45A]  0.401
35. ACCGGAUGUCCUUUCCGGUGUGAUGAGUCCGUGAGGACGAAACAG [G10C C20G]  0.4
36. ACCGGAUGUGCUUUGCGGUCUGAUGAGACCGUGAGGACGAAACAG [C15G U28A]  0.389
37. ACCGGAUGUGCUCUCCGGUCUGCUGAGUCCGUGAGGACGAAACAG [U13C A23C]  0.373
38. ACCUGAUGUGCUUUCCGGUCUGAGGAGUCCGUGAGGACGAAACAG [G4U U24G]  0.372
39. ACCGGAUGUGCUUUCCGGUCUAAGGAGUCCGUGAGGACGAAACAG [G22A U24G]  0.363
40. AUCAGAUGUGCUUUCCGGUCUGAUGAGUCCGUGAGGACGAAACAG [C2U G4A]  0.361
41. ACCGGAUGUGCUUUCCGGUCUGUUGAGUCCGUGAGGAGGAAACAG [A23U C38G]  0.357
42. ACCGGAUGUGCUUUUCGGUCUGAUGAGUCCGUGAGGACAAAACAG [C15U G39A]  0.347
43. ACCGGAUGUGAUUUCCGGUCUGAUAAGUCCGUGAGGACGAAACAG [C11A G25A]  0.342
44. ACUGGAUGUGCUUUCCGGUCUGAUGAGUCCGUGAGGACGGAACAG [C3U A40G]  0.34
45. ACCGGAUGUGCUUUACGGUCUGAUUAGUCCGUGAGGACGAAACAG [C15A G25U]  0.339
46. ACCGGAUGUGCUUUCCGGUCUGUUGAGUCCGUGAGGACGAAUCAG [A23U A42U]  0.337
47. ACCGGAUGUGCUUUCCGGUCUGAUGAGUGCGUGAGGACUAAACAG [C29G G39U]  0.334
48. ACCGGAUGUGCUUUCCGGUAUGAUGAGUCCGUGAGGACGCAACAG [C20A A40C]  0.33
49. ACCGGAUGUGCUUUCCGGUUUGAUGAGUCCGUGAGCACGAAACAG [C20U G36C]  0.327
50. ACCGGAUGUGCUUUCCGGAUUGAUGAGUCCGUGAGGACGAAACAG [U19A C20U]  0.303
51. ACCGGAUGUGCUUUCCGGUCUGAUCAGUCCGUGAGGACGAAAAAG [G25C C43A]  0.302
52. ACCCGAUGUGCUUUCCGGUCUGAUGAGUCCGUGAGGACGAAAUAG [G4C C43U]  0.298
53. ACCGGACGUGCUUUCCGGUCUUAUGAGUCCGUGAGGACGAAACAG [U7C G22U]  0.289
54. ACGGGAUGUGCUUUCCGGUCUGAUGAGUCCGUGAGGACGCAACAG [C3G A40C]  0.284
55. ACCGGGUGUGCUUUCCGGUCUUAUGAGUCCGUGAGGACGAAACAG [A6G G22U]  0.28
56. ACCGGAGGUGCUUUCCGGUCUGAUGAGUCCGUGAGGACGAACCAG [U7G A42C]  0.271
57. ACGGGAUGUGCUUUCCGGUCUGGUGAGUCCGUGAGGACGAAACAG [C3G A23G]  0.257
